According to PMC2494773 (American Journal of Physiology. Heart and Circulatory …, 2008):

B1: peroxiredoxin 1 (Prdx1), rat heart (natural protein, rat (endogenous in heart), UniProt Q63716 1-199, looked up)
chain: MSSGNAKIGHPAPSFKATAVMPDGQFKDISLSDYKGKYVVFFFYPLDFTFVCPTEIIAFSDRAEEFKKLNCQVIGASVDSHFCHLAWINTPKKQGGLGPMNIPLVSDPKRTIAQDYGVLKADEGISFRGLFIIDDKGILRQITINDLPVGRSVDEILRLVQAFQFTDKHGEVCPAGWKPGSDTIKPDVNKSKEYFSKQK
B2: peroxiredoxin 2 (Prdx2), rat heart (natural protein, rat (endogenous in heart), UniProt P35704 1-198, looked up)
chain: MASGNAHIGKPAPDFTGTAVVDGAFKEIKLSDYRGKYVVLFFYPLDFTFVCPTEIIAFSDHAEDFRKLGCEVLGVSVDSQFTHLAWINTPRKEGGLGPLNIPLLADVTKSLSQNYGVLKNDEGIAYRGLFIIDAKGVLRQITVNDLPVGRSVDEALRLVQAFQYTDEHGEVCPAGWKPGSDTIKPNVDDSKEYFSKHN

Columns and labels:
[1] = target: the molecule itself; assay: non-reducing SDS-PAGE and immunoblot
SEC = target: the molecule itself; assay: SEC

Protein	stoichiometry N [1]	stoichiometry N (SEC)
B1	2	–
B2	2	10
